According to paper PMC3296735:
Blank lines part the entries; values can stand above or below the binder they belong to.

Experiments:
[1] = total lysate western blot; details: glycan lost
[2] = cell surface ELISA, HA tag, CHO; details: glycan lost
[3] = cell surface biotinylation, western blot; details: glycan lost
[4] = calnexin co-immunolabelling intensity correlation (ER retention); details: glycan lost
[5] = cycloheximide chase western; protein remaining; details: glycan lost
[6] = molecular target: human GLP1R with C-terminal V5 epitope (GLP1R-V5) (human) (UniProt P43220)

B1: GLP-1R (GLP1R): N63,82,115Q (protein)
parent chain: MAGAPGPLRLALLLLGMVGRAGPRPQGATVSLWETVQKWREYRRQCQRSLTEDPPPATDLFCNRTFDEYACWPDGEPGSFVNVSCPWYLPWASSVPQGHVYRFCTAEGLWLQKDNSSLPWRDLSECEESKRGERSSPEEQLLFLYIIYTVGYALSFSALVIASAILLGFRHLHCTRNYIHLNLFASFILRALSVFIKDAALKWMYSTAAQQHQWDGLLSYQDSLSCRLVFLLMQYCVAANYYWLLVEGVYLYTLLAFSVLSEQWIFRLYVSIGWGVPLLFVVPWGIVKYLYEDEGCWTRNSNMNYWLIIRLPILFAIGVNFLIFVRVICIVVSKLKANLMCKTDIKCRLAKSTLTLIPLLGTHEVIFAFVMDEHARGTLRFIKLFTELSFTSFQGLMVAILYCFVNNEVQLEFRKSWERWRLEHLHIQRDSSMKPLKCPTSSLSSGATAGSSMYTATCQASCS
expression_or_secretion ([1]; control: wild type GLP-1R-V5): decreases
localisation_or_trafficking ([2]; control: wild type HA-GLP-1R): decreases
localisation_or_trafficking ([3]; control: wild type GLP-1R-V5): decreases

B2: GLP-1R (GLP1R): N115Q (protein)
parent chain: B1 parent chain
localisation_or_trafficking ([2]; control: wild type HA-GLP-1R): no change

B3: GLP-1R (GLP1R): N63Q (protein)
parent chain: B1 parent chain
localisation_or_trafficking ([2]; control: wild type HA-GLP-1R): no change

B4: GLP-1R (GLP1R): N82Q (protein)
parent chain: B1 parent chain
localisation_or_trafficking ([2]; control: wild type HA-GLP-1R): no change

B5: GLP-1R (GLP1R): complete glycosylation-deficient mutant (N63,82,115Q) (protein)
parent chain: B1 parent chain
localisation_or_trafficking, other: Pearson correlation ([4]; control: wild type GLP-1R): increases, just under 50% vs low level of correlation

B6: GLP-1R (GLP1R): glycosylation deficient GLP-1R (N63,82,115Q) (protein)
parent chain: B1 parent chain
degradation_or_half_life ([5]; control: wild type GLP-1R-V5): decreases

B7: GIPR (GIP receptor): N62,77Q (protein)
parent chain: MTTSPILQLLLRLSLCGLLLQRAETGSKGQTAGELYQRWERYRRECQETLAAAEPPSGLACNGSFDMYVCWDYAAPNATARASCPWYLPWHHHVAAGFVLRQCGSDGQWGLWRDHTQCENPEKNEAFLDQRLILERLQVMYTVGYSLSLATLLLALLILSLFRRLHCTRNYIHINLFTSFMLRAAAILSRDRLLPRPGPYLGDQALALWNQALAACRTAQIVTQYCVGANYTWLLVEGVYLHSLLVLVGGSEEGHFRYYLLLGWGAPALFVIPWVIVRYLYENTQCWERNEVKAIWWIIRTPILMTILINFLIFIRILGILLSKLRTRQMRCRDYRLRLARSTLTLVPLLGVHEVVFAPVTEEQARGALRFAKLGFEIFLSSFQGFLVSVLYCFINKEVQSEIRRGWHHCRLRRSLGEEQRQLPERAFRALPSGSGPGEVPTSRGLSSGTLPGPGNEASRELESYC
expression_or_secretion ([1]; control: wild type GIPR-V5): decreases
localisation_or_trafficking ([2]; control: wild type HA-GIPR): abolishes
localisation_or_trafficking ([3]; control: wild type GIPR-V5): abolishes

B8: GIPR (GIP receptor): N62Q (protein)
parent chain: B7 parent chain
localisation_or_trafficking ([2]; control: wild type HA-GIPR): decreases
localisation_or_trafficking ([3]; control: wild type GIPR-V5): decreases

B9: GIPR (GIP receptor): N77Q (protein)
parent chain: B7 parent chain
localisation_or_trafficking ([2]; control: wild type HA-GIPR): decreases
localisation_or_trafficking ([3]; control: wild type GIPR-V5): decreases

B10: GIPR (GIP receptor): glycosylation deficient GIPR (N62,77Q) (protein)
parent chain: B7 parent chain
degradation_or_half_life ([5]; control: wild type GIPR-V5): decreases

B11: GIPR (GIP receptor): complete glycosylation-deficient mutant (N62,77Q) (protein)
parent chain: B7 parent chain
localisation_or_trafficking, other: Pearson correlation ([4]; control: wild type GIPR): increases, about 80% vs almost no correlation

rescue of the cAMP response to GIP (LANCE TR-FRET) in CHO cells co-expressing N62,77Q-GIPR-V5 and wild type GLP1R-V5; EC50 of GIP (neither receptor alone gave a response that could be fitted) [6]: 11 nM
B12: N62,77Q-GIPR-V5 (receptor)
chain: RAETGSKGQTAGELYQRWERYRRECQETLAAAEPPSGLACQGSFDMYVCWDYAAPQATARASCPWYLPWHHHVAAGFVLRQCGSDGQWGLWRDHTQCENPEKNEAFLDQRLILERLQVMYTVGYSLSLATLLLALLILSLFRRLHCTRNYIHINLFTSFMLRAAAILSRDRLLPRPGPYLGDQALALWNQALAACRTAQIVTQYCVGANYTWLLVEGVYLHSLLVLVGGSEEGHFRYYLLLGWGAPALFVIPWVIVRYLYENTQCWERNEVKAIWWIIRTPILMTILINFLIFIRILGILLSKLRTRQMRCRDYRLRLARSTLTLVPLLGVHEVVFAPVTEEQARGALRFAKLGFEIFLSSFQGFLVSVLYCFINKEVQSEIRRGWHHCRLRRSLGEEQRQLPERAFRALPSGSGPGEVPTSRGLSSGTLPGPGNEASRELESYC
